Source: patent US20250026813A1 (published 2025)

What was measured:
[1] = target: RBD domain of the spike protein of SARS-CoV-2 virus (Acro Biosystems SPD-C52H3) (SARS-CoV-2, UniProt P0DTC2 319-537)
[2] = target: T1, RBD domain of the spike protein of SARS-CoV-2 virus (Acro Biosystems SPD-C52H3) (SARS-CoV-2, UniProt P0DTC2 319-537); experiment: Affinity (SPR) by Octet; antigen not named, taken from the epitope column
T1 construct: domain: RBD domain

Row | Binder | IC50 [1] [nM] | Kd [2] [nM]
1 | IMPI-055 (antibody, V domains shown) VH: QVQLVQSGAEVKKPGASVKVSCKASGYTFTSYDINWVRQATGQGLEWMGWMNPNSGNTGYAQKFQGRVTMTRDTSINTAYMELSSLRSEDTAVYFCARGGRYCSDVTCYSGEPFDYWGQGTLVTVSS VL: EIMLTQSPDFQSVTPKEKVTITCRASQSIGSSLHWYQQKPDQSPKLLIKFASQSISGVPSRFSGSGSGTDFTLTINSLEAEDAAAYYCHQSSSLPHTFGPGTKVEIK | 3.39 | 
2 | IMPI-029 (antibody, V domains shown) VH: EVQLVESGGGLIQPGGSLRLSCAASGVTVSSNYMNWVRQAPGKGLEWVSVIYSGGSTYYADSVKGRFTISRDNSKNTLFLQMNSLRAEDSAVYYCARDLGPYGVDVWGQGTTVTVSS VL: DIQLTQSPSFLSASVGDRVTITCWASQGISSYLAWYQQKPGKAPKLLIYAASTLQSGVPSRFSGSGSGTEFTLTISSLQPEDFATYYCQELNSYPLTFGQGTRLEIK | 1.26 | 
3 | IMPI-017 (antibody, V domains shown) VH: EVQLVESGGGLIQPGGSLRLSCAAAGLTVSSNYMNWVRQVPGKGLEWVSVIYSGGSTYYADSVKGRFTISRDNSKNTLYLQMNSLRAEDTAVYYCARDLGTLGMDVWGQGTTVTVSS VL: DIQLTQSPSFLSASVGDRVTITCWASQGISTYLAWYQQKPGKAPKLLIYAASTLQSGVPSRFSGSGSGTEFTLTISSLQPEDFATYYCQQLNSYLPTFGQGTKVEIK | 0.832 | 
4 | YANG-1109 (antibody, V domains shown) VH: EVQLVESGGGLIQPGGSLRLSCGVSGLTVSRNYMNWVRQAPGKGLEWVSVIYSGGSTFYADSVKGRFTISRDNSKNTLYLQMISLRAEDSGVYYCAREGFGMDVWGQGTTVTVSS VL: DIQLTQSPSFLSASVGDRVTITCWASQGISNYLAWYQQKPGKAPKLLIYSASTLQSGVPSRFSGSGSGTEFTLTISNLQPADIATYYCQLLNSHPCSFGQGTKLEIK |  | < 0.1
5 | IMPI-047 (antibody, V domains shown) VH: EVQLVESGGGLIQPGGSLRLSCAASGFTVSSNYMNWVRQAPGKGLEWVSVIYSGGSTYYADSVKGRFTISRDNSKNTLYLQMNSLRTEDTAVYYCARDLVAYGMDVWGQGTTVTVSS VL: DIQLTQSPSFLSASVGDRVTITCWASQGISSYLAWYQQKPGKAPKVLIYAASTLQSGVPSRFSGSGSGTEFTLTISSLQPEDFATYYCQLLNSNPLTFGGGTKVEIK | 3.36 | 
6 | IMPI-002 (antibody, V domains shown) VH: EVQLVESGGGLIQPGGSLRLSCAASGVTVSSNYMSWVRQAPGKGLEGVSVIYSGGSTYYADSVKGRFTISRDNSKNTLYLQMNSLRAEDTAVYYCARDTVVYGMDVWGQGTTVTVSS VL: DIQLTQSPSFLSASVGDRVTITCWASQGISSYLAWYQQKPGKAPKLLIYAASTLQSGVPSRFSGSGSGTEFTLTISSLQPEDFATYYCQQLNSYPLTFGGGTKVEIK | 8.15 | 
7 | IMPI-005 (antibody, V domains shown) VH: EVQLVESGGGLIQPGGSLRLSCAASGFTVSSNYMNWVRQAPGKGLEWVSVIYSGGSTYYADSVKGRFTISRDNSKNTLFLQMNSLRAEDSAVYYCARDLGPYGVDVWGQGTTVTVSS VL: DIQLTQSPSFLSASVGDRVTITCWASQGISSYLAWYQQKPGKAPKLLIYAASTLQSGVPSRFSGSGSGTEFTLTISSLQPEDFATYYCQELNSYPLTFGQGTRLEIK | 3.18 | 
8 | IMPI-056 (antibody, V domains shown) VH: EVQLVESGGGLIQPGGSLRLSCAASGLTVSSNYMNWVRQAPGKKLEWVSVIYSGGSTFYADSVRGRFTISRDNSKNTLFLQMNSLRAEDSAVYYCARDLGPYGVDVWGQGTTVTVSS VL: DIQLTQSPSFLSASVGDRVTITCWASQGISSYLAWYQQKPGKAPKLLIYAASTLQSGVPSRFSGSGSGTEFTLTISSLQPEDFATYYCQQLNSYPLTFGQGTRLEIK | 1.93 | 
9 | IMPI-021 (antibody, V domains shown) VH: EVQLVESGGGLIQPGGSLRLSCAASGVTVSSNYMSWVRQAPGKGLEWVSVIYSGGSTFYADSVKGRFTISRDNSKNTLYLQMNSLRAEDTAVYYCARDLSYYGMDVWGQGTTVTVSS VL: DIQLTQSPSFLSASVGDRVTITCWASQGISSYLAWYQQKPGKAPKLLIYAASTLQSGVPSKFSGSGSGTEFTLTISSLQPEDFATYYCQQLNSYPCSFGQGTKLEIK | 4.87 | 
10 | IMPI-059 (antibody, V domains shown) VH: EVQLVESGGGLIQPGGSLRLSCAASGFTVSSIYMSWVRQAPGKGLEWVSIIYSRGSTDYADSVKGRFTISRDISKNTLYLQMNSLRAEDTAVYYCARDGTMVRGVHAFDIWGQGTMVTVSS VL: DIQMTQSPPSLSASIGDRVTITCQASQDISNYLNWYQQKPGKAPKLLIYDASNLETGVPSRFSGSGSGTDFTLTISNLQPEDIVTYYCQQYDNLPSSFGQGTKLEIK | 2.02 | 
11 | YANG-1111 (antibody, V domains shown) VH: EVQLVESGGGLIQPGGSLRLSCAASGFTFSSYSINWVRQAPGKGLEWVSFISGSSTTIYYADSVKGRFTISRDSAKNSLYLQMNSLRDEDTAVYYCARGLRSSIAPRPDYFDSWGQGILVTVSS VL: SYVLTQPPSVSVAPGKTARITCGGNNIGSKGVHWYQQKPGQAPVLVIYYDSDRPSGIPERFSGSNSGNTATLTISRVEAGDEADYSCQVWDSSSDHPVFGGGTKLTVQ |  | < 0.1
12 | YANG-1110 (antibody, V domains shown) VH: QVQLAESGGGVVQPGRSLRLSCVVSGFTFSNYGMHWVRQAPGKGLEWVVFISNDGSNEDFVDSVKGRFTISRDNSKNTLYLQMNSLRAEDTAVYYCAKGGYFYGSGNYYYYYGMDVWGQGTTVTVSS VL: QPVLTQSSSASASLGSSVKLTCTLSSVHSNHIIAWHQQQPGKAPRYLMKLEGSGRYSKGSGVPDRFSGSSSEADRYLTISNLQSEDEADYYCETWDNNTYVFGSGTKVTVL |  | < 0.1
13 | IMPI-054 (antibody, V domains shown) VH: EVQLVESGGGLIQPGGSLRLSCAASGLTVSSNYMSWVRQAPGKGLEWVSIIYSGGSTYYADSVKGRFTISRDNSKNTLYLQMNSLRAEDTAVYYCARLGGYYYYGMDVWGQGTTVTVSS VL: DIQMTQSPSSLSASVGERVTITCQASQDIRNYLNWYQKKPGKAPKLLIYDSSNLETGVPSRFSGSGSGTDFTFTISSLQPEDIATYYCQQYDNLPITFGQGTRLEIK | 2.28 | 
14 | IMPI-042 (antibody, V domains shown) VH: EVQLVESGGGLIQPGGSLRLSCAASGLTVSSNYMSWVRQAPGKGLEWVSIIYSGGSTYYADSVKGRFTISRDNSKNTLYLQMNSLRAEDTAVYYCARLGGYYYYGMDVWGQGTTVTVSS VL: DIQMTQSPSSLSASVGERVTITCQASQDIRNYLNWYQKKPGKAPKLLIYDSSNLETGVPSRFSGGGSGTDFTFTISSLQPEDIATYYCQQYDNLPITFGQGTRLEIK | 5.54 | 
15 | YANG-1112 (antibody, V domains shown) VH: QITLKESGPTLVKPTQTLTLTCTFSGFSLSTGGVAVGWIRQPPGKALEWLAIIYWDDDKRYSPSLKSRLTITKDTSKNQVVLTMTNMDPVDTATYYCAHWGKDSFDIWGQGTMVTVSS VL: SYELTQPPSVSVSPGQTARITCSGDALPRKYAYWYQQKSGQAPVLVIYEDNNRPSGIPERFSGSSSGTTATLTVSGAQVEDEADYYCYSTDTSGYVVFGGGTKLTVL |  | < 0.1
16 | YANG-1119 (antibody, V domains shown) VH: EVQLVESGGGLVKPGGSLRLSCAASGFTFSSYSMNWVRQAPGKGLEWVSSISTGSSYIFYADSVKGRFTISRDNAKNSLYLQMNSLRAEDTAVYYCAKTGDLPFFDYWGQGTLVTVSS VL: QSALTQPASVSGSPGQSITISCTGTSSDVGRYNYVSWYQQHPGKAPKLMIYEVSNRPSGVSNRFSGSKSGNTASLTISGLQAEDEADYYCSSYTSSSTMVFGGGTKLTVL |  | < 0.1
17 | YANG-1116 (antibody, V domains shown) VH: EVQLVESGGGLVKPGGSLRLSCEASGFNFRSYALNWVRQAPGKGLEWVSSISTGSSYIFYADSVKGRFTISRDNAKNSLSLQMNSLRAEDTAVYYCAKTGDLPFFDYWGQGTLVTVSS VL: QSALTQPASVSGSPGQSITISCTGTSSDVGRYNYVSWYQQHPGKAPKLMIYEVSNRPSGVSNRFSGSKSGNTASLTISGLQAEDEADYYCISYTSSSTMVFGGGTKLTVL |  | < 0.1
18 | YANG-1113 (antibody, V domains shown) VH: EVQLVESGGGLVKPGGSLRLSCAASGFTFSSYSMNWVRQAPGKGLEWVSSISTGSSYIFYADSVKGRFTMSRDNAKNSLYLQMNSLRAEDTAVYYCAKTGDLPFFDYWGQGTPVTVSS VL: QSALTQPASVSGSPGQSITISCTGTSSDVGRYNYVSWYQQHPGKAPKLMIYEVSNRPSGVSNRFSGSKSGNTASLTISGLQAEDEADYYCSSYTSSSTMVFGGGTKLTVL |  | < 0.1
19 | YANG-1115 (antibody, V domains shown) VH: EVQLVESGGGLVKPGGSLRLSCAASGFTFSSYSMNWVRQAPGKGLEWVSSISTGSSYIFYADSVKGRFTISRDNAKNSLYLQMNSLRAEDTAVYYCAKTGDLPFFDYWGQGTLVTVSS VL: QSALTQPASVSGSPGQSITISCTGTSSDVGRYNYVSWYQQHPGKAPKLMIYEVSNRPSGVSNRFSGSKSGNTASLTISGLQAEDEADYYCSSYTSSSTMVFGGGTKLSVL |  | < 0.1
20 | YANG-1118 (antibody, V domains shown) VH: EVQLVESGGGLVKPGGSLRLSCAASGFTFSSYALNWVRQAPGKGLEWVSSISTGSSYIFYADSVKGRFTISRDNAKHSLSLQMNSLRAEDTAVYYCAKTGDLPFFDYWGQGTLVTVSS VL: QSALTQPASVSGSPGQSITISCTGTSSDVGRYNYVSWYQQHPGKAPKLMIYEVSNRPSGVSNRFSGSKSGNTASLTISGLQAEDEADYYCISYTSSSTMVFGGGTKLTVL |  | < 0.1
21 | YANG-1114 (antibody, V domains shown) VH: EVHLVESVGGLVKPGGSLRLSCAASGFTFSSYSMNWVRQAPGKGLEWVSSISTGSSYIFYADSVKGRFTISRDNAKNSLYLQMNSLRAEDTAVYYCAKTGDLPFFDYWGQGTLVTVSS VL: QSALTQPASVSGSPGQSITISCTGTSSDVGRYNYVSWYQQHPGKAPKLMIYEVSNRPSGVSNRFSGSKSGNTASLTISGLQAEDEADYYCSSYTSSSTMVFGGGTKLTVL |  | < 0.1
22 | YANG-1117 (antibody, V domains shown) VH: EVQLVESGGGLVKPGGSLRLSCAASGFTFSSYSVNWVRQAPGKGLEWVSSISTGSSYIFYADSVKGRFTISRDNAKNSLYLQMNSLRAEDTAVYYCVKTGDLPFFDYWGQGTLVTVSS VL: QSALTQPASVSGSPGQSITISCTGTRSDVGRYNYVSWYQQHPGKAPKLMIYEVTNRPSGVSNRFSGSKSGNTASLTISGLQAEDEADYYCSSYTNNSTMVFGGGTKLTVL |  | < 0.1
